Consider three molecules from PMC11437077.

Experiment [1] deals with T1, mouse PD-L2 with C-terminal biotin, Q9WUL5.
T1 chain: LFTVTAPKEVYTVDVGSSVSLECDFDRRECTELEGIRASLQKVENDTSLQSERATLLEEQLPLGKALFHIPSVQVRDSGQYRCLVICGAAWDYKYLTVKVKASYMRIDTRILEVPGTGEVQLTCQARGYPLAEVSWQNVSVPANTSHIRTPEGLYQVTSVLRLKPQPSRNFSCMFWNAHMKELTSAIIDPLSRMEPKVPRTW
Kind of experiment: 2D effective affinity measurement, PD-L2-coated RBCs against PD-1-expressing CHO cells. Conditions: chain shown with the change, parent: est. 0.00098, read off a plot.

Experiment [2] has as its target T1, mouse PD-L2 with C-terminal biotin, …. As to the kind of experiment: dynamic force spectroscopic analysis with BFP. The note with it: chain shown with the change.
For experiment [3] the target is unchanged. Kind of experiment: bond lifetime vs force measurement, single bonds (BFP). The note with it: chain shown with the change, read off a plot.
Experiment [4] shares this target. As to the kind of experiment: effective bond lifetime (bond lifetime x bond survival probability, BFP data). The note with it: chain shown with the change, read off a plot.

B1: mouse PD-1 wild type expressed on CHO cells, Q02242 A132K (protein)
chain: LEVPNGPWRSLTFYPAWLTVSEGANATFTCSLSNWSEDLMLNWNRLSPSNQTEKQAAFCNGLSQPVQDARFQIIQLPNRHDFHMNILDTRRNDSGIYLCGAISLHPKKKIEESPGAELVVTERILETSTRYPSPSPKPEGRFQGMVIGIMSALVGIPVLLLLAWALAVFCSTSMSEARGAGSKDDTLKEEPSAAPVPSVAYEELDFQGREKTPELPTACVHTEYATIVFTEGLGASAMGRRGSADGLQGPRPPRHEDGHCSWPL
For the molecule B1, in experiment [1] (n = 12 cell pairs), the other: AcKa (2D effective affinity) is 0.00085 µm^4. In experiment [2] (n = 270 events), this molecule registered an other: F1/2 (rupture force) of 9.5 pN.

B2: mouse PD-1 wild type expressed on CHO cells, Q02242 L128A; K131A (protein)
chain: LEVPNGPWRSLTFYPAWLTVSEGANATFTCSLSNWSEDLMLNWNRLSPSNQTEKQAAFCNGLSQPVQDARFQIIQLPNRHDFHMNILDTRRNDSGIYLCGAISAHPAAKIEESPGAELVVTERILETSTRYPSPSPKPEGRFQGMVIGIMSALVGIPVLLLLAWALAVFCSTSMSEARGAGSKDDTLKEEPSAAPVPSVAYEELDFQGREKTPELPTACVHTEYATIVFTEGLGASAMGRRGSADGLQGPRPPRHEDGHCSWPL
For the molecule B2, the other: AcKa (2D effective affinity) in experiment [1] (n = 13 cell pairs) stood at 0.00088 µm^4. Moreover, the other: bond lifetime in experiment [3] (force bin est. 2.2 pN) turned out to be 0.16 s; in experiment [3] (force bin est. 4.3 pN), 0.15 s; in experiment [3] (force bin est. 11 pN) it was 0.05 s. The other: effective bond lifetime in experiment [4] (force bin est. 2.2 pN) turned out to be 0.16 s; in experiment [4] (force bin est. 4.3 pN) it was 0.14 s; in experiment [4] (force bin est. 8.3 pN) it was 0.04 s; in experiment [4] (force bin est. 11 pN), 0.015 s. Moreover, the other: F1/2 (rupture force) in experiment [2] (n = 345 events) turned out to be 9.7 pN.

B3: mouse PD-1 wild type expressed on CHO cells, Q02242 K131A (protein)
chain: LEVPNGPWRSLTFYPAWLTVSEGANATFTCSLSNWSEDLMLNWNRLSPSNQTEKQAAFCNGLSQPVQDARFQIIQLPNRHDFHMNILDTRRNDSGIYLCGAISLHPAAKIEESPGAELVVTERILETSTRYPSPSPKPEGRFQGMVIGIMSALVGIPVLLLLAWALAVFCSTSMSEARGAGSKDDTLKEEPSAAPVPSVAYEELDFQGREKTPELPTACVHTEYATIVFTEGLGASAMGRRGSADGLQGPRPPRHEDGHCSWPL
As for B3, the other: AcKa (2D effective affinity) in experiment [1] (n = 12 cell pairs) is 0.0011 µm^4. The same molecule registered an other: F1/2 (rupture force) in experiment [2] (n = 210 events) of 9.4 pN.
